Data on 2 substances can be found in PMC3711130.

Test [1] addresses His-Tm (wild-type α-tropomyosin homodimer with a histidine tag) (rat). The test is described as follows: cross-linking.
The target in test [2] is pyr-actin·WT-Tm·hcTn thin filament (rabbit | rat | human) (UniProt P68135). As to the kind of experiment: stopped-flow fluorescence.
For test [3] the target is unchanged. As to the kind of experiment: stopped-flow fluorescence. This is another data set of the same source.
The target in test [4] is pyr-actin·D175N-Tm·hcTn thin filament (rabbit | rat | human) (UniProt P68135). The test is described as follows: stopped-flow fluorescence.
The target of test [5] is pyr-actin·WT-E180G-Tm·hcTn thin filament (rabbit | rat | human) (UniProt P68135). As to the kind of experiment: stopped-flow fluorescence.
Test [6] concerns the target pyr-actin·WT-D175N-Tm·hcTn thin filament (rabbit | rat | human) (UniProt P68135). As to the kind of experiment: stopped-flow fluorescence.
Test [7] addresses pyr-actin·E180G-Tm·hcTn thin filament (rabbit | rat | human) (UniProt P68135). As to the kind of experiment: stopped-flow fluorescence.

Read-outs that look alike come from different tables or passages of the source.

myosin subfragment 1 (native rabbit skeletal) (domain or fragment), sequence (Q28641 whole entry, the tested form may be a part): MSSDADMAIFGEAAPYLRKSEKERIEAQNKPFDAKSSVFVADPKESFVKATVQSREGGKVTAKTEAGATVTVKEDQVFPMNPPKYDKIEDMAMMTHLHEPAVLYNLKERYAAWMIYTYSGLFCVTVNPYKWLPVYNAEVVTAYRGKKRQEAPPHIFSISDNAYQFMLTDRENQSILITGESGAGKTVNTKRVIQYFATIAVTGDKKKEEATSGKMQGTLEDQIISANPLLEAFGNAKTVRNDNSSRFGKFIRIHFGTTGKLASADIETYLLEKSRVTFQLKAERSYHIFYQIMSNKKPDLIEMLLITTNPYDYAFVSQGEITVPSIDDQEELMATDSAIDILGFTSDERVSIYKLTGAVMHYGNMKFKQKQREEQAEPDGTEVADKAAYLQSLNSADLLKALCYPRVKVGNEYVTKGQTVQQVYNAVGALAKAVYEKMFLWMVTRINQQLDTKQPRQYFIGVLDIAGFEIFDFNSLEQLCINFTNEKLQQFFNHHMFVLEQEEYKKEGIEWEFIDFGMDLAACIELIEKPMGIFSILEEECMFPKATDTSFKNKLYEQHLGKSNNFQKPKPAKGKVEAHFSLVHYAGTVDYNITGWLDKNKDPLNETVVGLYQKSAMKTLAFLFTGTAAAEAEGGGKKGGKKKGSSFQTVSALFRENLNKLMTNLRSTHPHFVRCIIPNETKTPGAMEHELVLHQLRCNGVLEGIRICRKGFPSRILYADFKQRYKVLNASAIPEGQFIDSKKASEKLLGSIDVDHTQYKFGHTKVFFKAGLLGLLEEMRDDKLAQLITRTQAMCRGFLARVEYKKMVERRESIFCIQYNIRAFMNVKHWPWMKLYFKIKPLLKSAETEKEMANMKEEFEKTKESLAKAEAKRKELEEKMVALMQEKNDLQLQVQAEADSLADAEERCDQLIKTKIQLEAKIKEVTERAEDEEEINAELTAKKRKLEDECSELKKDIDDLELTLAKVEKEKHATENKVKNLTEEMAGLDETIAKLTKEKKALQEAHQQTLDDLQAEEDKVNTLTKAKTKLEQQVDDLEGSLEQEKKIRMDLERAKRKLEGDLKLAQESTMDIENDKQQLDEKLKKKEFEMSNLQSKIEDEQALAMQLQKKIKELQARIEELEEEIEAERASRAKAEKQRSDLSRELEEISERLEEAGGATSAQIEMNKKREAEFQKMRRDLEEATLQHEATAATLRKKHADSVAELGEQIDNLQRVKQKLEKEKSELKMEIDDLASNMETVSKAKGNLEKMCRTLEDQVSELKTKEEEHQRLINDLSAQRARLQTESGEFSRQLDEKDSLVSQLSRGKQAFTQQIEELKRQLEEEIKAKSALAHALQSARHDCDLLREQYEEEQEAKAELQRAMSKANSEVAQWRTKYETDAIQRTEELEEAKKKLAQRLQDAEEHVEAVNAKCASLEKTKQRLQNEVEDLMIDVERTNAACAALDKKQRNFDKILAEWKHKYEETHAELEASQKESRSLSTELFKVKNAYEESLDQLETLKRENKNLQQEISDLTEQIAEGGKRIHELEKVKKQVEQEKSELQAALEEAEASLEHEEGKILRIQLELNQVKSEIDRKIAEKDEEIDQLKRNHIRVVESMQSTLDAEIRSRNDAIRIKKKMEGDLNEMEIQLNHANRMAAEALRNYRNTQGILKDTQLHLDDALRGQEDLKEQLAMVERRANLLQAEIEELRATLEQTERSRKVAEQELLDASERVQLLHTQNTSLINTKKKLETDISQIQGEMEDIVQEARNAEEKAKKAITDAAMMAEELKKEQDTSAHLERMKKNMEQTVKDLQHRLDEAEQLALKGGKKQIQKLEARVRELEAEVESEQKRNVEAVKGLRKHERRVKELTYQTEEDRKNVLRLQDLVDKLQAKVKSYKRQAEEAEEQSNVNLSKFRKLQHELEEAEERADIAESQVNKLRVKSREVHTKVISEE

For the substance “D175N-Tm (α-tropomyosin homodimer with the D175N mutation in both chains) (natural protein)”, the stoichiometry N in test [1] amounted to 1.

As to “myosin subfragment 1 (native rabbit skeletal) (domain or fragment)”, the kobs with Ca2+ in test [2] worked out at 7 s^–1; in test [3] it was 7.68 s^–1; in test [4], 8.48 s^–1; in test [5], 7.58 s^–1; in test [6], 8 s^–1; in test [7], 8.46 s^–1. Besides, the kobs without Ca2+ in test [2] is 2 s^–1; in test [3] it was 2.21 s^–1; in test [4] it was 2.41 s^–1; in test [5], 2.31 s^–1; in test [6], 2.31 s^–1; in test [7], 2.71 s^–1.
